The text below walks through data of patent publication CN108610419A.

To fix the notation:
B1: m14C5B (antibody, mouse IgG1, V domains shown)
VH: EVQLQQSGPELEKPGASVKISCRTSGYSFTMYNINWVKQTNGKSLEWIGNLDAYYGGSNYNPKFKDKATLTVDISSNTAFMQLWSLTSEDSAVYYCTRILWSRDFYTMDYWGRGTSVTVSS
VL: DIQVTQTSSSLSASLGDRVTITCRTSQDISNYLHWYQQTPDGTVKLLIYSTSTGHSGVPSRFSGSGSGTDYSLTISNLEQEDIATYFCQQSYTLAYTFGGGTKLEIKR
B2: hu14C5B (antibody, V domains shown, not shown: a dimerising Fc or GST)
VH: EVQLVESGGGLVQPGGSLRLSCAASGYSFTMYNINWVKQAPGKGLEWIGNLDAYYGGSNYNPKFKDKATLSRDNSKNTAYLQMNSLRAEDTAVYYCTRILWSRDFYTMDYWGQGTLVTVSS
VL: DIQVTQSPSSLSASVGDRVTITCRTSQDISNYLHWYQQKPGKAPKLLIYSTSTGHSGVPSRFSGSGSGTDFTLTISSLQPEDFATYFCQQSYTLAYTFGQGTKVEIKR
B3: hu14C5B-6 (antibody, V domains shown, not shown: a dimerising Fc or GST)
VH: EVQLVESGGGLVQPGGSLRLSCAASGFTFSLYNINWVKQAPGKGLEWIGNLDPYYGGSNYNPKFKDKATLSRDNSKNTAYLQMNSLRAEDTAVYYCTRILWSRDYYTMDYWGQGTLVTVSS
VL: DIQVTQSPSSLSASVGDRVTITCRTSQDISNYLHWYQQKPGKAPKLLIYSTSTLHSGVPSRFSGSGSGTDFTLTISSLQPEDFATYFCQQSYTLPYTFGQGTKVEIKR
B4: hu14C5B-2 (antibody, V domains shown, not shown: a dimerising Fc or GST)
VH: EVQLVESGGGLVQPGGSLRLSCAASGFTFSLYNINWVKQAPGKGLEWIGNLDPYYGGSNYNPKFKDKATLSRDNSKNTAYLQMNSLRAEDTAVYYCTRILWSRDYYTMDYWGQGTLVTVSS
VL: DIQVTQSPSSLSASVGDRVTITCRTSQDISNYLHWYQQKPGKAPKLLIYSTSTAHSGVPSRFSGSGSGTDFTLTISSLQPEDFATYFCQQSYTLLYTFGQGTKVEIKR
B5: hu14C5B-1 (antibody, V domains shown, not shown: a dimerising Fc or GST)
VH: EVQLVESGGGLVQPGGSLRLSCAASGFTFSAYNINWVKQAPGKGLEWIGNLDPYYGGSNYNPKFKDKATLSRDNSKNTAYLQMNSLRAEDTAVYYCTRILWSRDYYTMDYWGQGTLVTVSS
VL: DIQVTQSPSSLSASVGDRVTITCRTSQDISNYLHWYQQKPGKAPKLLIYSTSTAHSGVPSRFSGSGSGTDFTLTISSLQPEDFATYFCQQSYTLLYTFGQGTKVEIKR
B6: hu14C5B-5 (antibody, human IgG1, kappa, V domains shown)
VH: EVQLVESGGGLVQPGGSLRLSCAASGFTFSAYNINWVKQAPGKGLEWIGNLDPYYGGSNYNPKFKDKATLSRDNSKNTAYLQMNSLRAEDTAVYYCTRILWSRDYYTMDYWGQGTLVTVSS
VL: DIQVTQSPSSLSASVGDRVTITCRTSQDISNYLHWYQQKPGKAPKLLIYSTSTLHSGVPSRFSGSGSGTDFTLTISSLQPEDFATYFCQQSYTLPYTFGQGTKVEIKR

The experiment deals with 重组人HER2蛋白的胞外区 (rHER2-ECD) (human) (UniProt P04626). Description: SPR (BIACORE3000), rHER2-ECD coupled to CM5 chip, antibody in flow, 25 °C. (In general: SPR reads the build-up and loss of mass on a sensor chip optically.)
Take B1: the Kd was found to be 0.295 nM.

B2 returned a Kd of 0.242 nM.

For the molecule B3, the Kd amounted to 4.62 nM.

Turning to B4, the Kd amounted to 31.5 nM.

B5 came in with a Kd of 8.53 nM.

B6 came in with a Kd of 0.186 nM.

The Kd is the constant that tells how readily two partners part at equilibrium.
